# Starred links: 1 amine or outer side, 2 acyl side, 3 side chain; linkers in the order of their positions; H or OH if unused. Positions of bridges follow the written chain, without caps; N, C: chain ends. Non-standard residues stand in square brackets, D forms with d. Residues, ends and D or L forms follow the SMILES beside them. Groups on a side chain read outwards from the residue. *: point of attachment. A4pipaa = 4-amino-1-(carboxymethyl)piperidine-4-carboxylic acid, O=C(C1(N[*:1])CCN(CC(=O)[*:3])CC1)[*:2]; X3 = NC(=O)[C@H](CCCCN*)NC(=O)CC[C@H](NC(=O)CC[C@H](NC(=O)CCCCCCCCCCCCCCC(=O)O)C(=O)O)C(=O)O; X10 = NC(=O)[C@H](CCCCN*)NC(=O)CC[C@H](NC(=O)CC[C@H](NC(=O)CCCc1ccc(I)cc1)C(=O)O)C(=O)O; Trp(1-CH2CO) = O=C([C@H](Cc1cn(CC(=O)[*:3])c2ccccc12)N[*:1])[*:2]; Trp(5-OMe) = COc1ccc2[nH]cc(C[C@H](N)C(=O)O)c2c1; Butanoyl(4-(4-I-phenyl)) = O=C(CCCc1ccc(I)cc1)*; Trp(5-OH) = N[C@@H](Cc1c[nH]c2ccc(O)cc12)C(=O)O; Phe(4-COOH) = N[C@@H](Cc1ccc(C(=O)O)cc1)C(=O)O; Piperazinyl(4-CH2COOH) = O=C(O)CN1CCN(*)CC1; X7 = O=C(O)CN1CCC(N[*:1])(C(=O)[*:2])CC1; C16 diacid = O=C(O)CCCCCCCCCCCCCCC(=O)*; γGlu = O=C(O)[C@H](CCC(=O)[*:2])N[*:1]; Aad = N[C@@H](CCCC(=O)O)C(=O)O; NMeK = CN[C@@H](CCCCN)C(=O)O; Aib = CC(C)(N)C(=O)O; CO = O=C([*:1])[*:2]
# T1: Recombinant human GhR-Fc protein (R&D Systems) (human, UniProt P10912 19-264, limits assumed)
# T1 construct: Bought from R&D Systems; Amine-coupled to a CM5 chip in the SPR assay; also called hGhR; recombinant human GhR protein fused to Fc portion of human IgG; not shown: Fc portion of human IgG
# T1 sequence (looked up): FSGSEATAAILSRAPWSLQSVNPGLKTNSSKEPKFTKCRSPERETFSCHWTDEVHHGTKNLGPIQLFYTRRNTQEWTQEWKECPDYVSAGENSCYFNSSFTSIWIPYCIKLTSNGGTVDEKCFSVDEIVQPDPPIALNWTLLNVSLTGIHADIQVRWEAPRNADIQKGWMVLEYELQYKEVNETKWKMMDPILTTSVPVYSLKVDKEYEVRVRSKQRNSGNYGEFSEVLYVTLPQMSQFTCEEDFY
# Target: T2, Recombinant human GhR-Fc protein (Homo sapiens, UniProt P10912)
# T2 construct: purchased R&D Systems
# Assay: Binding activity of hGhR binding peptide by surface plasmon resonance (SPR), Biacore T200, single-cycle kinetics
# Conditions: human GhR-Fc immobilized on CM5 chip, KD calculated from ka and kd
# Method: (§1) SPR assay was performed using Biacore T200 (cytiva: Former GE Healthcare). After the equilibration of Series S Sensor Chip CM5 (produced by cytiva: Former GE Healthcare) with Running Buffer (HBS-EP with 1% (v/v) DMSO), an EDC/NHS mixture was injected at a flow rate of 10 μL/min for 7 minutes to thereby activate the functional groups on sensor chip. Recombinant human GhR-Fc protein (R&D Systems) in 10 mM Acetate (pH4.0) was injected immobilized to at a flow rate of 5 μL/min. It took 7 minutes to immobilize the GhR on the substrate surfaces of the sensor chip. Then Ethanolamine was injected at a flow rate of 10 μL/min for 7 minutes. 1M Ethanolamine (aq.) was injected at a flow rate of 10 μL/min for 420 seconds for capping.
# (§2) Using these Peptide Samples, kinetics of peptides against human GhR-Fc protein were measured. The method adopted for sample measurement was a single-cycle kinetics method. The analysis was conducted using the evaluation software provided with Biacore T200. A DMSO correction curve obtained by solvent correction measurements was applied for the analysis. Kinetics fitting was done on the difference data obtained by subtracting the baseline data from sample measurement data. KD values were calculated based on the association rate constant (ka) and dissociation rate constant (kd).
# Furthermore, “obs. m/z [M+2H]2+” indicates the ESI-MS(+) observed value. Unless otherwise specified, this is bivalent ([M+2H]^2+).
# T2 sequence (P10912 with tags, fused parts or gaps limits assumed): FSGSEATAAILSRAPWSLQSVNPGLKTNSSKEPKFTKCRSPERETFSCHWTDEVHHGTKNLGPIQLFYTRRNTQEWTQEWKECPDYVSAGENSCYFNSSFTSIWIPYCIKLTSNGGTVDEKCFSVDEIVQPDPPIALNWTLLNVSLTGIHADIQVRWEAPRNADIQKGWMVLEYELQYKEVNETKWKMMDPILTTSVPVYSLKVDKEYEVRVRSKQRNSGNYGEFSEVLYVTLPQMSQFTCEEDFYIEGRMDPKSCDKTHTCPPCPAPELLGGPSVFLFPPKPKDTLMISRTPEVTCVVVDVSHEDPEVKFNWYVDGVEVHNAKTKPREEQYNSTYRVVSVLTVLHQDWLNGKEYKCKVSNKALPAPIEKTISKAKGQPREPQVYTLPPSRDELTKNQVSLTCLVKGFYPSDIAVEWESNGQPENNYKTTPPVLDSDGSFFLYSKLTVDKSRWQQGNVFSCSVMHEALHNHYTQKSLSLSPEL
row,Kd [nM],Molecule
1,3.07,CC(C)[C@@H]1NC(=O)[C@H](C(C)C)NC(=O)[C@@H]2CCCCNC(=O)Cn3cc(c4ccccc43)C[C@H](NC(=O)[C@H](CC(N)=O)NC(=O)[C@H](CO)NC1=O)C(=O)N[C@@H](Cc1ccc(C(=O)O)cc1)C(=O)N[C@@H](CCCC(N)=O)C(=O)N[C@@H](Cc1c[nH]c3ccc(O)cc13)C(=O)NC(C)(C)C(=O)N[C@@H](C(C)C)C(=O)N[C@H](C(=O)NCCCC[C@H](NC(=O)CC[C@H](NC(=O)CC[C@H](NC(=O)CCCc1ccc(I)cc1)C(=O)O)C(=O)O)C(N)=O)CSCC(=O)N[C@@H](Cc1ccc(C(=O)O)cc1)C(=O)N2C [Compound 5] ({CH2CO}-[Phe(4-COOH)][NMeK]VVSN[Trp(1-CH2CO)][Phe(4-COOH)][Aad](NH2)[Trp(5-OH)][Aib]VC-X10; lactam 2-7; thioether N-13)
2,6.31,COc1ccc2[nH]cc(C[C@@H]3NC(=O)[C@H](CC(N)=O)NC(=O)[C@H](CO)NC(=O)[C@H](C(C)C)NC(=O)[C@H](C(C)C)NC(=O)[C@H](CCCCNC(=O)CC[C@H](NC(=O)CC[C@H](NC(=O)CCCc4ccc(I)cc4)C(=O)O)C(=O)O)N(C)C(=O)[C@H](Cc4ccc(O)cc4)NC(=O)CSC[C@@H](C(=O)NCC(=O)N4CCC[C@H]4C(=O)N[C@H](CO)C(=O)N[C@H](CO)C(=O)N[C@H](CO)C(N)=O)NC(=O)[C@H](C(C)C)NC(=O)C(C)(C)NC(=O)[C@H](Cc4c[nH]c5ccc(O)cc45)NC(=O)[C@H](CCCCNC(=O)N4CCN(CC(=O)O)CC4)NC(=O)[C@H](Cc4ccc(C(=O)O)cc4)NC3=O)c2c1 [Compound 49] ({CH2CO}-Y[NMeK]([γGlu-γGlu-Butanoyl(4-(4-I-phenyl))])VVSN[Trp(5-OMe)][Phe(4-COOH)]K([CO-Piperazinyl(4-CH2COOH)])[Trp(5-OH)][Aib]VCGP[dS][dS][dS]-NH2; thioether N-13)
3,5.47,COc1ccc2[nH]cc(C[C@@H]3NC(=O)[C@H](CC(N)=O)NC(=O)[C@H](CO)NC(=O)[C@H](C(C)C)NC(=O)[C@H](C(C)C)NC(=O)[C@H](CCCCNC(=O)CC[C@H](NC(=O)CC[C@H](NC(=O)CCCc4ccc(I)cc4)C(=O)O)C(=O)O)N(C)C(=O)[C@H](Cc4ccc(O)cc4)NC(=O)CSC[C@@H](C(=O)NCC(=O)N4CCC[C@H]4C(=O)N[C@H](CO)C(=O)N[C@H](CO)C(=O)N[C@H](CO)C(N)=O)NC(=O)[C@H](C(C)C)NC(=O)C4(CCN(CC(=O)O)CC4)NC(=O)[C@H](Cc4c[nH]c5ccc(O)cc45)NC(=O)[C@H](CCCCN)NC(=O)[C@H](Cc4ccc(C(=O)O)cc4)NC3=O)c2c1 [Compound 52] ({CH2CO}-Y[NMeK]([γGlu-γGlu-Butanoyl(4-(4-I-phenyl))])VVSN[Trp(5-OMe)][Phe(4-COOH)]K[Trp(5-OH)][X7]VCGP[dS][dS][dS]-NH2; thioether N-13)
4,2.71,CC(C)[C@@H]1NC(=O)[C@H](C(C)C)NC(=O)[C@@H]2CCCCNC(=O)Cn3cc(c4ccccc43)C[C@H](NC(=O)[C@H](CC(N)=O)NC(=O)[C@H](CO)NC1=O)C(=O)N[C@@H](Cc1ccc(O)cc1)C(=O)N[C@@H](CCCCNC(=O)N1CCN(CC(=O)O)CC1)C(=O)N[C@@H](Cc1c[nH]c3ccc(O)cc13)C(=O)NC(C)(C)C(=O)N[C@@H](C(C)C)C(=O)N[C@H](C(=O)NCC(=O)N1CCC[C@H]1C(=O)N[C@H](CO)C(=O)N[C@H](CO)C(=O)N[C@H](CO)C(=O)NCCCC[C@H](NC(=O)CC[C@H](NC(=O)CC[C@H](NC(=O)CCCCCCCCCCCCCCC(=O)O)C(=O)O)C(=O)O)C(N)=O)CSCC(=O)N[C@@H](Cc1ccc(O)cc1)C(=O)N2C [Compound 28] ({CH2CO}-Y[NMeK]VVSN[Trp(1-CH2CO)]YK([CO-Piperazinyl(4-CH2COOH)])[Trp(5-OH)][Aib]VCGP[dS][dS][dS]-X3; lactam 2-7; thioether N-13)
5,1.88,CC(C)[C@@H]1NC(=O)[C@H](C(C)C)NC(=O)[C@@H]2CCCCNC(=O)Cn3cc(c4ccccc43)C[C@H](NC(=O)[C@H](CC(N)=O)NC(=O)[C@H](CO)NC1=O)C(=O)N[C@@H](Cc1ccc(C(=O)O)cc1)C(=O)N[C@@H](CCCCN)C(=O)N[C@@H](Cc1c[nH]c3ccc(O)cc13)C(=O)NC(C)(C)C(=O)N[C@@H](C(C)C)C(=O)N[C@H](C(=O)NCC(=O)N1CCC[C@H]1C(=O)N[C@H](CO)C(=O)N[C@H](CO)C(=O)N[C@H](CO)C(=O)NCCCC[C@H](NC(=O)CC[C@H](NC(=O)CC[C@H](NC(=O)CCCc1ccc(I)cc1)C(=O)O)C(=O)O)C(N)=O)CSCC(=O)N[C@@H](Cc1ccc(C(=O)O)cc1)C(=O)N2C [Compound 14] ({CH2CO}-[Phe(4-COOH)][NMeK]VVSN[Trp(1-CH2CO)][Phe(4-COOH)]K[Trp(5-OH)][Aib]VCGP[dS][dS][dS]-X10; lactam 2-7; thioether N-13)

# Target: T1, Recombinant human GhR-Fc protein (R&D …)
# Assay: SPR, Biacore T200, single-cycle kinetics, GhR-Fc immobilised on CM5
# Conditions: not given
# Method: as §1, with “capping. 10 mM Peptides in DMSO were diluted to obtain 10 uM with Running Buffer, and prepared 100 nM, 50 nM, 25 nM, 10 nM, 5 nM of each peptide solutions (Peptide Samples).” for “capping.”
# as §2
row,Kd [nM],Molecule
1,2.29,"{CH2CO}-Y[NMeK]VVSN[Trp(1-CH2CO)][Phe(4-COOH)]K[Trp(5-OH)][A4pipaa]VCK([Glu-Glu-C16 diacid])-NH2 (thioether N-13; lactam 2-7, also called Compound No. 23) [GhR_PD_239]"
2,2.4,"{CH2CO}-[Phe(4-COOH)][NMeK]VVSN[Trp(1-CH2CO)]YK[Trp(5-OH)][A4pipaa]VCK([Glu-Glu-C16 diacid])-NH2 (thioether N-13; lactam 2-7, also called Compound No. 18) [GhR_PD_238]"
3,0.7,"{CH2CO}-Y[NMeK]VVSN[Trp(1-CH2CO)]YK[Trp(5-OH)][Aib]VCG-NH2 (thioether N-13; lactam 2-7; SMILES CC(C)[C@@H]1NC(=O)[C@H](C(C)C)NC(=O)[C@@H]2CCCCNC(=O)Cn3cc(c4ccccc43)C[C@H](NC(=O)[C@H](CC(N)=O)NC(=O)[C@H](CO)NC1=O)C(=O)N[C@@H](Cc1ccc(O)cc1)C(=O)N[C@@H](CCCCN)C(=O)N[C@@H](Cc1c[nH]c3ccc(O)cc13)C(=O)NC(C)(C)C(=O)N[C@@H](C(C)C)C(=O)N[C@H](C(=O)NCC(N)=O)CSCC(=O)N[C@@H](Cc1ccc(O)cc1)C(=O)N2C, also called Compound No. 1) [GhR_PD_139]"
4,0.98,"{CH2CO}-Y[NMeK]VVSN[Trp(1-CH2CO)]YK[Trp(5-OH)][Aib]VCK([Glu-Glu-Butanoyl(4-(4-I-phenyl))])-NH2 (thioether N-13; lactam 2-7, also called Compound No. 32) [GhR_PD_246]"
5,1.57,"{CH2CO}-Y[NMeK]VVSN[Trp(1-CH2CO)]YK[Trp(5-OH)][A4pipaa]VCK([Glu-Glu-C16 diacid])-NH2 (thioether N-13; lactam 2-7, also called Compound No. 29) [GhR_PD_237]"
6,1.22,"{CH2CO}-Y[NMeK]VVSN[Trp(1-CH2CO)]YK[Trp(5-OH)][Aib]VCG-NH2 (thioether N-13; lactam 2-7 via G, also called Compound No. 2) [GhR_PD_140]"
7,1.93,"{CH2CO}-[Phe(4-COOH)][NMeK]VVSN[Trp(1-CH2CO)]YK[Trp(5-OH)][Aib]VCK([Glu-Glu-C16 diacid])-NH2 (thioether N-13; lactam 2-7, also called Compound No. 19) [GhR_PD_231]"
8,1.07,"{CH2CO}-[Phe(4-COOH)][NMeK]VVSN[Trp(1-CH2CO)]YK[Trp(5-OH)][Aib]VCK([Glu-Glu-Butanoyl(4-(4-I-phenyl))])-NH2 (thioether N-13; lactam 2-7, also called Compound No. 21) [GhR_PD_215]"
